Reference: PMC10322840

Legend:
[1] = molecular target: Paracentrotus lividus RAF, 6 MYC tags (Paracentrotus lividus); assay: co-IP; lysates of co-transfected HEK293T cells (200 ul at 0.5 mg/ml); mouse anti-myc 9E10 overnight at 4 °C, Dynabeads Pan mouse IgG 2 h; five washes in 50 mM Tris HCl pH 7.5, 150 mM NaCl, 10% glycerol, 0.2% Triton X100, 1 mM EDTA; blots with rabbit anti-HA and anti-Myc
[2] = molecular target: Paracentrotus lividus RAF, 6 MYC tags; assay: co-immunoprecipitation (IP anti-Myc of Pl. RAF, blot quantified); details: parent: 1; read off a plot

Chain of Paracentrotus lividus RAF, 6 MYC tags (Paracentrotus lividus) (main, as listed by the source): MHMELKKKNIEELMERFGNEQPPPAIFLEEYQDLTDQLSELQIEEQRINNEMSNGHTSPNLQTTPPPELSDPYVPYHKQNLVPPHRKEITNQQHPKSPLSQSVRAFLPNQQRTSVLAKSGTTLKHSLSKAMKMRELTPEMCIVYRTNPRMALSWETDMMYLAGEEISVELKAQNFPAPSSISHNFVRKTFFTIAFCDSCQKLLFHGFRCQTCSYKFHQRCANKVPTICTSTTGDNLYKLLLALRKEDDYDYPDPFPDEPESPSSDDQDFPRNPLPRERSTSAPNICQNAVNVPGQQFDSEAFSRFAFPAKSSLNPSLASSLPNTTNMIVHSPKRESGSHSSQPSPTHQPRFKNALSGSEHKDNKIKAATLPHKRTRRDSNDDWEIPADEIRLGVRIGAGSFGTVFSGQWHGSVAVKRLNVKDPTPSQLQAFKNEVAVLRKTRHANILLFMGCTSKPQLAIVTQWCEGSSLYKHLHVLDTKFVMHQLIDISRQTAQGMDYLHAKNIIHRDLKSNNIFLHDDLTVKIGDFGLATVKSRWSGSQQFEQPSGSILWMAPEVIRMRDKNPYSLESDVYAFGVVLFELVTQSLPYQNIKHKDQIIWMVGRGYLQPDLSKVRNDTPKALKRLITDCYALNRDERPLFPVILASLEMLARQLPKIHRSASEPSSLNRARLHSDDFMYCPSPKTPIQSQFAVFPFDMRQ

| Substance | fold change of RAF co-immunoprecipitated, against wild-type KSR3 [1] | ratio to parent (arbitrary units) [2] |
| --- | --- | --- |
| Paracentrotus lividus KSR3 S361E (natural protein) | 1.5 fold | – |
| Paracentrotus lividus KSR3, wild type, 3HA-tagged S361E; R364H | – | 0.46 |
